# Values of other authors as cited in patent US20060183681A1, “Stabilized compositions containing natriuretic peptides” (Bio-Rad Laboratories, Inc., priority 2005, published 2006).
substance,measurement,value
B-type natriuretic peptide [BNP],half-life (t1/2) in vivo,approximately 23 minutes
